Data as given in patent US20150232546A1 (THROMBOGENICS, published 2015).
Read-outs that look alike come from different tables or passages of the source. Ends that are not written are not given here. * marks the point of attachment. Biotin = O=C1N[C@H]2[C@H](CS[C@H]2CCCCC(=O)*)N1

T1: human PDGF-C peptide no. 9 (human)
T1 peptide: Biotin-FPHTYPRNTVLVWRL

T2: human PDGF-C peptide no. 27 (human)
T2 peptide: Biotin-EPGFCIHYNIVMPQF

T3: human PDGF-C peptide no. 58 (human)
T3 peptide: Biotin-VLQLRPKTGVRGLHK


Columns and labels:
[1] = target: T4, Recombinant human PDGF-C from R&D Systems (1687-CC/CF; Val235-Gly345) (human, UniProt Q9NRA1 235-345); test: cell-based or functional assay
T4 sequence (Q9NRA1 235-345 limits assumed, form in doubt): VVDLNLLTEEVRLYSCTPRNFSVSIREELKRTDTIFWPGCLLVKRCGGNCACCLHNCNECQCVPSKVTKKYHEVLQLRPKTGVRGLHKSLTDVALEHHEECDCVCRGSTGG

[2] = target: T4, Recombinant human PDGF-C from R&D …; test: cell-based or functional assay; remark: listed apart in the source
[3] = target: T4, Recombinant human PDGF-C from R&D …; test: cell-based or functional assay; remark: listed apart in the source
[4] = target: T1, human PDGF-C peptide no. 9; test: peptide ELISA, signal to background >3
Procedure: (§1) The indicated peptides where synthesized in an N-terminally biotinylated form and coated onto a neutravidin plate (Thermo Scientific, Cat. 15127) at a concentration of 10 μg/mL. […] Each antibody was tested at least twice, and up to 4 times. A “+” in the table indicate that a signal to background >3 was found and confirmed at least once. The background signal was measured in the absence of peptide using both the primary and the secondary antibodies.

[5] = target: T2, human PDGF-C peptide no. 27; test: peptide ELISA, signal to background >3
Procedure: as §1

[6] = target: T3, human PDGF-C peptide no. 58; test: peptide ELISA, signal to background >3
Procedure: as §1

[7] = target: T4, Recombinant human PDGF-C from R&D …; test: SPR (Biacore 3000), antibody amine-coupled to CM5 chip, PDGF-C injected, 1:1 fit
Procedure: (§2) The different antibodies were each separately coated to a CM5 chip at a density of 1680 RU using standard amine chemistry. Different concentrations (200, 175, 150, 125, 100, 75, 50, 25, 12.5, 6.25, 3.125 & 0 nM) of PDGF-C (R&D Systems, Cat. 1687-CC/CF) were injected over the coated antibody for 5 min, then buffer was flowed for 10 min to monitor the dissociation of the captured antigen. The surface was regeneration between each run with a single injection of glycine-HCl, pH 2.5. Affinities were obtained by analyzing the sensorgrams with the help of the BIAevaluation 4.1 software assuming a 1:1 interaction. The experiment was performed with a Biacore 3000 instrument.

[8] = target: T4, Recombinant human PDGF-C from R&D …; test: SPR as in Example 3
Procedure: as §2
The affinity of the above-listed exemplary humanized anti-PDGF-C antibodies for PDGF-C was analysed (as in Example 3) and the humanized antibodies were subsequently assessed in the in vitro bioassay described in Example 4. A technical problem with the (preparation of) humanized antibody 5H7 may explain why this antibody is apparently not inhibiting activation of PDGFR-α although it is still binding with high affinity to PDGF-C; this is under further investigation.

[9] = target: T4, Recombinant human PDGF-C from R&D …; test: cell-based or functional assay; remark: listed apart in the source

| IC50 value (nM), PathHunter PDGFRα assay [1] | % PDGF-Rα activation by PDGF-C allowed at 1.85 µg/mL antibody (100% = no antibody) [2] | % PDGFRα activation in the PathHunter PDGFRα assay at 5.56 µg/ml antibody with PDGF-CC at EC80 (no Ab with PDGF-CC = 100, no Ab without PDGF-CC = 24) [3] | % PDGFRα activation in the PathHunter PDGFRα assay at 16.67 µg/ml antibody with PDGF-CC at EC80 (no Ab with PDGF-CC = 100, no Ab without PDGF-CC = 24) [3] | % PDGFRα activation in the PathHunter PDGFRα assay at 50 µg/ml antibody with PDGF-CC at EC80 (no Ab with PDGF-CC = 100, no Ab without PDGF-CC = 24) [3] | binding result [4] | binding result [5] | binding result [6] | Kd [7] | Kd [8] | IC50 value (nM), PathHunter PDGFRα assay [9] | Binder |
| --- | --- | --- | --- | --- | --- | --- | --- | --- | --- | --- | --- |
| 0.65 nM |  |  |  |  |  |  |  |  |  |  | recombinant human PDGFRα Fc chimera (6765-PR from R&D Systems) (Fc fusion, not shown: a dimerising Fc or GST) QLSLPSILPNENEKVVQLNSSFSLRCFGESEVSWQYPMSEEESSDVEIRNEENNSGLFVTVLEVSSASAAHTGLYTCYYNHTQTEENELEGRHIYIYVPDPDVAFVPLGMTDYLVIVEDDDSAIIPCRTTDPETPVTLHNSEGVVPASYDSRQGFNGTFTVGPYICEATVKGKKFQTIPFNVYALKATSELDLEMEALKTVYKSGETIVVTCAVFNNEVVDLQWTYPGEVKGKGITMLEEIKVPSIKLVYTLTVPEATVKDSGDYECAARQATREVKEMKKVTISVHEKGFIEIKPTFSQLEAVNLHEVKHFVVEVRAYPPPRISWLKNNLTLIENLTEITTDVEKIQEIRYRSKLKLIRAKEEDSGHYTIVAQNEDAVKSYTFELLTQVPSSILDLVDDHHGSTGGQTVRCTAEGTPLPDIEWMICKDIKKCNNETSWTILANNVSNIITEIHSRDRSTVEGRVTFAKVEETIAVRCLAKNLLGAENRELKLVAPTLRSEIEGRMD |
| 3.36 nM | 30% | 20% | 17% | 18% | binds | binds | binds | 5 nM |  |  | anti-PDGF-C antibody 5A2 (antibody, IgG2b, V domains shown, Mouse monoclonal from hybridoma, IgG2b, kappa; also called mAb 5A2; hybridoma LMBP 9484CB) VH: EVQLVESGGDLVKPGGSLKLSCAASGFTFSNYGMSWVRQTPDKRLEWVATIGSGGHYTYYPDSVKGRFTISRDSAKSTLYLQMSSLKSEDTAIYYCARQAPLWDCSDYWGQGTTLTVSS VL: DVLMTQTPLSLPVSLGDQASISCRSNQSIVHSNGDTYLEWYLQKPGQSPKLLIYKVSNRFSGVPDRFSGSGSGTDFTLKISRVEAEDLGVYYCFQGSHVPPTFGGGTKLEIK |
| 5.57 nM | 32% | 24% | 22% | 22% |  |  | binds | 2.5 nM |  |  | anti-PDGF-C antibody 5H7 (antibody, IgG1, V domains shown, Mouse monoclonal from hybridoma, IgG1, kappa; also called mAb 5H7; hybridoma LMBP 9485CB) VH: EVQLVESGGDLVKPGGSLKLSCAASGFTFSSYGMSWVRQTPDKRLEWVATIGYGGSFTYYPDSMKGRFTISRDNAKNTLFLQMSSLKSEDTAIYYCVRQAPLWDYFDYWGQGTTLTVSS VL: DVLMTQTPLSLPVSLGDQASISCRSSQTIVHSDGTTYLEWYLQKAGQSPKLLIYKVSNRFSGVPDRFSGSGSGTDFTLKISRVEAEDLGVYYCFQGSHVPPTFGGGTKLEIK |
| 7.47 nM | 49% | 32% | 24% | 23% |  |  |  | 1.5 nM |  |  | anti-PDGF-C antibody 2D3 (antibody, IgG1, V domains shown, Mouse monoclonal from hybridoma, IgG1, kappa; also called mAb 2D3; hybridoma LMBP 9483CB) VH: EVQLVESGGDLVKPGGSLKLSCAASGFTFSNYGMSWVRQTPDKRLEWVATIGSGGSYTYYPDSVKGRFTISRDSAKNTLYLQMSSLKSEDTAMYYCARQAPLWDYSDYWGQGTTLTVSS VL: DVLMTQTPLSLPVSLGDQASISCRSNQTIVHSNGDTYLEWYLQKPGQSPNLLIYKVSNRFSGVPDRFSGSGSGTDFTLKISRVEAEDLGVYYCFQGSHVPPTFGGGTKLEIK |
|  | 23% | 22% | 21% | 22% |  |  | binds | 1.5 nM |  |  | anti-PDGF-C antibody 29H1 (antibody, IgG1, V domains shown, Mouse monoclonal from hybridoma, IgG1, kappa; also called mAb 29H1; hybridoma LMBP 9487CB) VH: EVQLVESGGDLVKPGGSLKLSCAASGFTFSNYGMSWVRQTPDKRLEWVATIGSGGHYTYYPDSVKGRFTISRDSAKSTLYLQMSSLRSDDTAIYYCARQAPLWDCSDYWGQGTTLTVSS VL: DVLMTQTPLSLPVSLGDQASISCRSNQSIVHSNGDTYLEWYLQKPGQSPNLLIYKVSNRFSGVPDRFSGSGSGTDFTLKISRVEAEDLGVYYCFQGSHVPPTFGGGTKLEIK |
| 8.38 nM | 38% | 24% | 23% | 20% |  |  |  | 1.2 nM |  |  | anti-PDGF-C antibody 16B1 (antibody, IgG1, V domains shown, Mouse monoclonal from hybridoma, IgG1, kappa; VH same as 2D3, VL same as 5A2; also called mAb 16B1; hybridoma LMBP 9486CB) VH: EVQLVESGGDLVKPGGSLKLSCAASGFTFSNYGMSWVRQTPDKRLEWVATIGSGGSYTYYPDSVKGRFTISRDSAKNTLYLQMSSLKSEDTAMYYCARQAPLWDYSDYWGQGTTLTVSS VL: DVLMTQTPLSLPVSLGDQASISCRSNQSIVHSNGDTYLEWYLQKPGQSPKLLIYKVSNRFSGVPDRFSGSGSGTDFTLKISRVEAEDLGVYYCFQGSHVPPTFGGGTKLEIK |
|  |  |  |  |  |  |  |  |  | 2.5 nM |  | Humanized 5H7 anti-PDGF-C antibody (antibody, V domains shown, also called humanized mAb 5H7) VH: EVQLLESGGGLVQPGGSLRLSCAASGFTFSSYGMSWVRQTPGKGLEWVATIGYGGSFTYYPDSMKGRFTISRDNAKNTLYLQMNSLRAEDTAVYYCARQAPLWDYFDYWGQGTLLTVSS VL: DVVMTQSPLSLPVTLGQPASISCRSSQTIVHSDGTTYLEWYLQKPGQSPRLLIYKVSNRFSGVPDRFSGSGSGTDFTLKISRVEAEDVGVYYCFQGSHVPPTFGQGTKLEIK |
|  |  |  |  |  |  |  |  |  | 0.8 nM | 4.97 nM | Humanized 16B1 anti-PDGF-C antibody (antibody, V domains shown, also called humanized mAb 16B1) VH: EVQLLESGGGLVQPGGSLRLSCAASGFTFSNYGMSWVRQTPGKGLEWVATIGSGGSYTYYPDSVKGRFTISRDNAKNTLYLQMNSLRAEDTAVYYCARQAPLWDYSDYWGQGTLLTVSS VL: DVVMTQSPLSLPVTLGQPASISCRSNQSIVHSNGDTYLEWYLQKPGQSPRLLIYKVSNRFSGVPDRFSGSGSGTDFTLKISRVEAEDVGVYYCFQGSHVPPTFGQGTKLEIK |
